Target: human CD16 receptor (FcgammaRIIIa) (human) (UniProt P08637)
Test: flow cytometry on NK cells; competition with 3G8-PE; antibody at 50 µg/ml

Chain of human CD16 receptor (FcgammaRIIIa) (human) (P08637 17-254): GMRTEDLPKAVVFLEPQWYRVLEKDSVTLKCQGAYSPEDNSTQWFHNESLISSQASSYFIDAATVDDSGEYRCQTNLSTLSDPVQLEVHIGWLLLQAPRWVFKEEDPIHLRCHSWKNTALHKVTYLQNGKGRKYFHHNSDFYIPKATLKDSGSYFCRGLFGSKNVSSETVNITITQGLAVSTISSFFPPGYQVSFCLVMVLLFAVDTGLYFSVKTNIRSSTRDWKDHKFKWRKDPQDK

A binding percentage (100% = total inhibition of 3G8 binding) of 18.5% was found for Rituxan® (antibody) in this work.
